What was measured:
N-protein WT (NWT) = N-protein WT (NWT) (SARS-CoV-2, UniProt P0DTC9 1-419); assay: SV-AUC; […], pH 7.4; […], pH 7.4; […], pH 7.50; temperature not given; details: protein: recombinant; tags: N-terminal 6xHis-TEV, cleaved; chain copies: 2; single strand
CTD = CTD (SARS-CoV-2, UniProt P0DTC9 247-364); assay: as above; details: protein: recombinant; tags: N-terminal 6xHis-TEV, cleaved; chain copies: 2; single strand

Row | Binder | binding result (N-protein WT (NWT)) | binding result (CTD)
1 | TTTTTTTTTTTTTTTTTTTTTTTTTTTTTTTTTTTTTTTT (ssDNA) [T40] | binds | binds
2 | TTTTTTTTTT (ssDNA) [T10] | binds | 

Source: publication doi:10.1101/2023.11.22.568361
